Data as given in PMC7039556.

What was measured:
[1] = target: isolated human low-density lipoprotein (LDL) particles; assay: density gradient ultracentrifugation of PCSK9-LDL binding reactions, Western blot densitometry; conditions: conditioned cell culture medium incubated with LDL; n = 4; read off a plot
[2] = target: isolated human low-density lipoprotein (LDL) particles (human (endogenous in plasma)); assay: co-sedimentation; Optiprep density gradient ultracentrifugation: 1 μg PCSK9 (concentrated conditioned medium) with 500 μg isolated human LDL in 1.0 ml HBS-C (25 mM HEPES-KOH pH 7.4, 150 mM NaCl, 2 mM CaCl2), 0.5% BSA, 37 °C 1 h; LDL fraction immunoprecipitated with anti-PCSK9 serum, PCSK9 quantified by Western blot and normalised to WT

Substance	ratio to parent [1]	other results
FLAG epitope-tagged recombinant human WT PCSK9 (proprotein convertase subtilisin/kexin type-9) (from UniProt Q8NBP7) Y38F	1	–
FLAG epitope-tagged recombinant human WT PCSK9 (proprotein convertase subtilisin/kexin type-9) (from UniProt Q8NBP7) Y38L	0.92	–
R469W and F515L substitutions (PCSK9)	–	percent decrease of LDL binding against WT PCSK9 [2]: 60 to 70%
human PCSK9 with the hydrophobic stretch (aa 41–45) and Arg-46 replaced by a glycine-serine linker (from UniProt Q8NBP7 31-152; Q8NBP7 153-692) (natural protein)	–	percent reduction of LDL binding against WT PCSK9 [2]: > 60%
